Several values for one entry are separate records, joined by “and”; a condition that tells them apart may be missing. Equal entries are not always repeated.
Legend:
[1] = system: CD14 positive recurrent bladder cancer patient-derived xenograft (PDX); assay: Anti-CD14 IgG1/IgG4 with or without cisplatin, tumor treatment in PDX mice (tumor length, width, volume, tumor weight; Example 6); format: in vivo; settings: for Tumor Length / Tumor Width: IgG1 5 mg/kg i.v. (Ex. 1), PDX mice 1-6
Source text: After removing the primary tumor tissue from the patient, the tissue was temporarily placed in a complete culture medium containing RPMI1640 (Gibco Roswell Park Memorial Institute 1640 Media)+PS (penicillin and streptomycin)+10% FBS (Fetal bovine serum). The tissue was then transported to a sterile operating room within an SPF-grade (Specific Pathogen Free) animal facility. The tumor tissue was cut to an appropriate size (5 millimeters (mm) in diameter). Severely immunodeficient NSG (NOD scid gamma mouse) mice were anesthetized using an isoflurane respirator. The tumor was transplanted subcutaneously into the right rib area through surgery. When the tumor volume reached 1 cm^3, it was passaged following the same procedure, and after expanding for three generations, the tumor became stable for use in formal experiments. During the experiment, passaging and expansion were performed as needed. When the tumor volume reached 100 mm^3, the mice were divided into groups according to the experimental requirements and treated with drugs.
The IgG4 tested is the original version of Atibuclimab.
Drug administration on the PDX mice was performed intravenously.

[2] = Mouse weight under anti-CD14-IgG1 dosages of Example 7 (PDX mice); format: in vivo; settings: per mouse 1-5
Experimental: To evaluate concentrations for the anti-CD14-IgG1 antibody, PDX mice were treated with five different concentrations of the IgG1 antibody over a period of 28 days. For these experiments, drug administration on the PDX mice was performed intravenously on alternating 4 days and 3 days.
The five different concentrations of the anti-CD14-IgG1 antibody tested include 5 mg/kg, 10 mg/kg, 15 mg/kg, 25 mg/kg, and 40 mg/kg. A control regimen was utilized as a comparative example. […] The non-specific IgG1 has no binding affinity to antigen. […] Tumor weight and tumor volume were calculated as described above.

B1: D6DD3D001: mouse-derived anti-CD14 IgG1 antibody; VH SEQ ID NO: 1, VL SEQ ID NO: 3, heavy chain SEQ ID NO: 2, light chain SEQ ID NO: 4 (antibody)
heavy: DVQLQQSGPGLVKPSQSLSLTCTVTGYSITSDSAWNWIRQFPGNRLEWMGYISYSGSTSYNPSLKSRISITRDTSKNQFFLQLNSVTTEDTATYYCVRGLRFAYWGQGTLVTVSSPSVFLFPPKPKDTLMISRTPEVTCVVVDVSHEDPEVKFNWYVDGVEVHNAKTKPREEQYNSTYRVVSVLTVLHQDWLNGKEYKCKVSNKALPAPIEKTISKAKGQPREPQVYTLPPSREEMTKNQVSLTCLVKGFYPSDIAVEWESNGQPENNYKTTPPVLDSDGSFFLYSKLTVDKSRWQQGNVFSCSVMHEALHNHYTQKSLSLSPGK
light: DIVLTQSPASLAVSLGQRATISCRASESVDSYVNSFLHWYQQKPGQPPKLLIYRASNLQSGIPARFSGSGSRTDFTLTINPVEADDVATYYCQQSNEDPYTFGGGTKLEIKRTVAAPSVFIFPPSDEQLKSGTASVVCLLNNFYPREAKVQWKVDNALQSGNSQESVTEQDSKDSTYSLSSTLTLSKADYEKHKVYACEVTHQGLSSPVTKSFNRGEC
Tumor Length ([1]; Day 0, 5 mg/kg): 5.49 mm and 6.47 mm and 6.35 mm and 7.09 mm and 6.67 mm and 6.45 mm
Tumor Width ([1]; Day 0, 5 mg/kg): 4.68 mm and 5.9 mm and 5.17 mm and 4.77 mm and 5.25 mm and 5.24 mm
Tumor Length ([1]; Day 4, 5 mg/kg): 7.07 mm and 6.57 mm and 5.62 mm and 7.08 mm and 6.02 mm and 6.24 mm
Tumor Width ([1]; Day 4, 5 mg/kg): 5.98 mm and 5.95 mm and 5.01 mm and 5.53 mm and 5.58 mm and 6.18 mm
Tumor Length ([1]; Day 7, 5 mg/kg): 7.09 mm and 6.9 mm and 6.93 mm and 6.25 mm and 6.83 mm and 8.42 mm
Tumor Width ([1]; Day 7, 5 mg/kg): 5.61 mm and 6.26 mm and 6.41 mm and 5.39 mm and 6.72 mm and 6.39 mm
Tumor Length ([1]; Day 11, 5 mg/kg): 7.21 mm and 8.38 mm and 8.42 mm and 8.88 mm and 7.93 mm and 6.52 mm
Tumor Width ([1]; Day 11, 5 mg/kg): 5.85 mm and 6.91 mm and 7.5 mm and 7.03 mm and 6.5 mm and 5.39 mm
Tumor Length ([1]; Day 14, 5 mg/kg): 8.71 mm and 8.88 mm and 8.53 mm and 8.28 mm and 9.34 mm and 8.3 mm
Tumor Width ([1]; Day 14, 5 mg/kg): 7.05 mm and 6.51 mm and 7.95 mm and 7.99 mm and 8.34 mm and 8.05 mm
Tumor Length ([1]; Day 18, 5 mg/kg): 8.97 mm and 8.58 mm and 10.62 mm and 9.13 mm and 10.97 mm and 10.6 mm
Tumor Width ([1]; Day 18, 5 mg/kg): 8.41 mm and 8.21 mm and 9.09 mm and 8.09 mm and 8.03 mm and 8.83 mm
Tumor Length ([1]; Day 21, 5 mg/kg): 10.32 mm and 9.85 mm and 10.71 mm and 10.99 mm and 9.04 mm and 9.86 mm
Tumor Width ([1]; Day 21, 5 mg/kg): 9.94 mm and 9.85 mm and 8.59 mm and 8.23 mm and 8.97 mm and 9.35 mm
Tumor Length ([1]; Day 25, 5 mg/kg): 10.94 mm and 11.6 mm and 9.44 mm and 10.91 mm and 11.63 mm and 11.67 mm
Tumor Width ([1]; Day 25, 5 mg/kg): 10.71 mm and 8.34 mm and 9.23 mm and 9.83 mm and 10.03 mm and 9.39 mm
Tumor Length ([1]; Day 28, 5 mg/kg): 11.18 mm and 12.43 mm and 12.8 mm and 10.15 mm and 10.49 mm
Tumor Width ([1]; Day 28, 5 mg/kg): 9.72 mm and 10.02 mm and 9.93 mm and 10.84 mm and 9.98 mm and 9.95 mm
Tumor weight after 28 days ([1]; IgG1 (5 mg/kg), Ex. 1, per mouse 1-6, 5 mg/kg): 0.645 grams and 0.585 grams and 0.501 grams and 0.618 grams and 0.641 grams and 0.555 grams
tumor suppression rate ([1]; single anti-CD14-IgG1 5 mg/kg (Ex. 1), after 28 days, compared to the control group): about 50%
Mouse Weight ([2]; Day 0, IgG1 (10 mg/kg), 10 mg/kg): 19.83 g and 20.73 g and 20.13 g and 20.77 g and 19.27 g
Mouse Weight ([2]; Day 0, IgG1 (15 mg/kg), 15 mg/kg): 20.37 g and 19.02 g and 20.34 g and 19.62 g and 19.24 g
Mouse Weight ([2]; Day 0, IgG1 (25 mg/kg), 25 mg/kg): 19.63 g and 20.3 g and 19.71 g and 20.07 g and 20.02 g
Mouse Weight ([2]; Day 4, IgG1 (5 mg/kg), 5 mg/kg): 20.33 g and 20.63 g and 19.58 g and 19.86 g and 20.45 g
Mouse Weight ([2]; Day 4, IgG1 (10 mg/kg), 10 mg/kg): 19.89 g and 20.39 g and 19.36 g and 20.74 g and 20.98 g
Mouse Weight ([2]; Day 4, IgG1 (15 mg/kg), 15 mg/kg): 20.83 g and 19.54 g and 20.87 g and 20.44 g and 20.68 g
Mouse Weight ([2]; Day 4, IgG1 (25 mg/kg), 25 mg/kg): 20.75 g and 19.2 g and 20.99 g and 20.16 g and 20.55 g
Mouse Weight ([2]; Day 7, IgG1 (5 mg/kg), 5 mg/kg): 20.95 g and 20.07 g and 20.36 g and 20.83 g and 20.56 g
Mouse Weight ([2]; Day 7, IgG1 (10 mg/kg), 10 mg/kg): 20.81 g and 19.35 g and 19.89 g and 20.23 g and 21.08 g
Mouse Weight ([2]; Day 7, IgG1 (15 mg/kg), 15 mg/kg): 19.65 g and 20.62 g and 20.38 g and 20.56 g and 20.71 g
Mouse Weight ([2]; Day 7, IgG1 (25 mg/kg), 25 mg/kg): 20.86 g and 20.2 g and 20.76 g and 21.38 g and 20.06 g
Mouse Weight ([2]; Day 11, IgG1 (5 mg/kg), 5 mg/kg): 20.85 g and 20.72 g and 20.22 g and 21.21 g and 20.94 g
Mouse Weight ([2]; Day 11, IgG1 (10 mg/kg), 10 mg/kg): 20.77 g and 20.5 g and 20.97 g and 21.03 g and 20.94 g

— US20250011456A1, “ANTIBODIES AGAINST CD14 AND USES THEREOF” (Villanelle Life Science Inc, priority 2023, published 2025)
